# Assay results taken from the DeepSol protein solubility set.
# Experiment: soluble on expression in E. coli; label from the status in PepcDB or PDB records
row,Sequence,soluble on expression in E. coli
1,MKFHVIDRENWNREQYFEHYLELKCTFSMTVNVDITLLIKKVHQKGIKFYPTFIYIISRIINKHKEFRTCFNDEGVLGYWEEMIPSYTIFHKDDKSFSSIWTDYSSDFRIFYKNYEEDMRCYASVHGLLTKENIPPNIFPISGIPWTSFTGFNLNINNDGDFLLPIITCGKYFNEENKIMLPVSLQVHHSVCDGYHVSRFIEDLQELSNSCNEWLK,not soluble
2,SLHRILLVDDEKDVGKIVSRLLAGDNYEIEQVTTGKEAMKRVLEESLPDIILLDINLPDIDGMDMLRDMKDAVRGTPIVMMTAYGSIETAVRSIKMGAMDFVQKPFNHYDFKRFINGVISARNIAGNDHCGIVGSSPQMKKVFRLVDKFALSDITILLQGESGTGKELFARAIHQKSKRRSGPFVPLDCAALSETLIESELFGHEKGAFTGATERKIGKFERAHGGTLFIDEVENLSSSNQAKLLRAVEEKQIERVGGTKAIKVDVRIVAASNIPLTEIINNGVFRKDLFYRFSQMTIAIPSLRDRVKDVDVLIRHFLAAYSEEFGNAANISEEALLLLNAYPWPGNVRELENVVKSAVILADGDILAKHLPEYIRKGSEG,soluble
3,RPDQVKLALDKPAYNDGDTAKVTVTPPAAGKGYLLIESSEGPLWWKEIDVPAEGKSYEIPLDKQWARHDLYVTALVIRPGERKANVTPKRAVGVLHLPLDRAQRKLALTVTAPEKMRPKQPLTLKVVAKNADGSVPEQVQVLVSAVDVGILNITRY,not soluble
4,MGSDKIHHHHHHMANVVLFGLQDYAELAHYYLEHDSPHQVAAFCVDRQYIPDSGTFKNLPVVAFEDVAHTHPPGDFSFFAPMSPKHMNRDRERIFNAIKAHGYTLISYVSSRATKFDNEIGENCFILEDNTLQPFTRIGDNVVLWSGNHIGHHGRIGDHVTMTSHVVMSGHCDIGAYSFVGVNATLRDGVTIGEGTFVAMASAITKNTEPWSVYRGNPAVKLTMPSTEVKF,not soluble
5,MRDMIYGEMALVSHTHPAAVGSTTCYEKNQQKQQQVQQIPTQPQVAHVSSNAILAAAQPFYPPPVQDSQPDRPIGYGAFGVVWSVTDPRSGKRVALKKMPNVFQNLASCKRVFREIKMLSSFRHDNVLSLLDILQPANPSFFQELYVLTELMQSDLHKIIVSPQALTPDHVKVFVYQILRGLKYLHTANILHRDIKPGNLLVNSNCILKICDFGLARTWDQRDRLNMTHEVVTQYYRAPELLMGARRYTGAVDIWSVGCIFAELLQRKILFQAAGPIEQLQMIIDLLGTPSQEAMKYACEGAKNHVLRAGLRAPDTQRLYKIASPDDKNHEAVDLLQKLLHFDPDKRISVEEALQHRYLEEGRLRFHSCMCSCCYTKPNMPSRLFAQDLDPRHESPFDPKWEKDMSRLSMFELREKMYQFVMDRPALYGVALCINPQSAAYKNFASSSVAQASELPPSPQAW,not soluble
6,EHQAILSKRLESVESDIRLEQNTMDMTRIDARKMQMTGDLIMKNSVTVGGIAGASGQYAATQERSEQQISQVNNRVASTASDEARESSRKSTSLIQEMLKTMESINQSKASALAAIAGNIRA,not soluble
7,MRTPYCVADYLLDRLTDCGADHLFGVPGDYNLQFLDHVIDSPDICWVGCANELNASYAADGYARCKGFAALLTTFGVGELSAMNGIAGSYAEHVPVLHIVGAPGTAAQQRGELLHHTLGDGEFRHFYHMSEPITVAQAVLTEQNACYEIDRVLTTMLRERRPGYLMLPADVAKKAATPPVNALTHKQAHADSACLKAFRDAAENKLAMSKRTALLADFLVLRHGLKHALQKWVKEVPMAHATMLMGKGIFDERQAGFYGTYSGSASTGAVKEAIEGADTVLCVGTRFTDTLTAGFTHQLTPAQTIEVQPHAARVGDVWFTGIPMNQAIETLVELCKQHVHAGLMSSSSGAIPFPQPDGSLTQENFWRTLQTFIRPGDIILADQGTSAFGAIDLRLPADVNFIVQPLWGSIGYTLAAAFGAQTACPNRRVIVLTGDGAAQLTIQELGSMLRDKQHPIILVLNNEGYTVERAIHGAEQRYNDIALWNWTHIPQALSLDPQSECWRVSEAEQLADVLEKVAHHERLSLIEVMLPKADIPPLLGALTKALEACNNA,soluble
8,MTHAPTTTPLRTAAKLLAAGAAALTLNSCAYDGIKVIVINMFQGEAQPFIDRYDLKEKVYIAGLSPDAPNLLCNYDGICQVTTGMGYANAAATLSALLYRSKLDLTQTYFVIAGIAGIDPGQGTVGSAAWARYAVDYGLSHEIDAREMPAAWPYGYFGIGTKGPGEKPPMNYRTEVFRLNEALLQRAYALSKPVTLEDSPEAIAFRKHYAYAPANQPPAVIQCDVASADTWWAGRNLGQRARDWTKTMTDGKGTYCTTAQEDNATLEVLARGARAGKVDFSRVALLRTGSDFDRPYDGQSAADGLVNYAQQGGFVPATHNLVNAAKPLLDDIVLRWPQWAQGVPANLEHHHHHH,not soluble
9,MMAYKSLLTVLTDPKIAPATLAQLVALAEAQDAHAEALCLGVDRSQTGYYYAGANALILQETLNRANAEAEEVLTLAQDTLGKSGVRWSAESGVAQIADLGRHVAHRARFSDLVVLSRPYGEDRGSEAEPIVEAAMFEGHAPVLVVPDNAPPLKQPRTVLLGWNESVEAMRAIRLAMPFLRAADLVRIVVIDPPRHGPDRSDPGGLLSQMLARHGVKVEIDVLSKTMTRVSDILNRHATDTSADMLVMGAYGHSRFREAILGGATRNMLEQATVPVFMAH,not soluble
10,MAHHHHHHMSSPQVVCEAKKAFEANKRVYESVLLTFKGVDGYDVYNCSVPFSYKGKTHIYGRVEKRDIWAASHVRLFEETGKDEFTAVPDGMTWLLEDPFVSSVKGEALFGGTRIRKVSNRLLSYYCDFFRGGIEQGLYFTTGPDNMKDIRCVELANGSIGVFSRPKTDVYTCIGFTIIDDLSELTQKVINEAEPLNVLHPGAWGGVNQAYLLTSGKVGCIAHYSYNSKDDKDCPTSVYLNYSFVLDPETKQAEMERIIGTRSCYPDYPVKAERLIDCAFSSGIVMREDGKCDLYSGLGDTCEGRIAIDYPFEGYGAVVDQLSF,soluble
11,MVYYIYHSAFVIEVEKSILIFDFYKFPSNKKKEKEEFFNRFIKRIDKKVYIFSTHSHSDHFNKEILTWLEMNENIKYILSDDIRIYKHKNFYFTKEGDSFELDNLKISTFGSTDLGSSFYVNTENKNIFHSGDLHFWHWEDDTPEEEKTMYDAYMVQLEKIKKLDRIDIAFVPVDPRLGVNTLEGVELFYKILKPKIIIPMHFSDDYSQMKNFIEKFKYNDDVKIIEIKDSMEKVLELEHHHHHH,not soluble
12,MTATWEKKEGNEGLLTVTVPAEKVNKALDQAFKKVVKQINVPGFRKGKVPRPIFEQRFGVEALYQDAIDILLPDAYGEAIDETDIKPVAQPEVSVTQIEKGKDFIFEATVTVEPEVKLGDYKGLEIEKQETELSDDELQEAIDHSLGHLAEMVVKEDGVVENGDTVNIDFSGSVDGEEFEGGQAEGYDLEIGSGSFIPGFEEQLEGMKVDEEKDVVVTFPEEYHAEELAGKEATFKTKVNEIKFKEVPELTDEIANELDAEANTVDEYKENLRKRLAEQKATDAENVEKEEAITKATDNTTIDIPEAMVNTELDRMVSEFAQRIQQQGLDLQTYFQISGQDETQLREQMKDDAEQRVKTNLTLTAIAEAEKIEATDEDIDKELEKMSKQFNISVEDIKNTLGNTDIIKNDVRIQKVIDLLRDNAKFVEGTKED,not soluble
13,MTLDHQIINPTLKWSQPAVPSGGPLVQHAHTTLDSDAGLTENPLTKLLAIGKEDDNAQWHLSGSILDVYSGEQGISPINMGLTSASCPSSLPMKREITETDTRALAKERQKKDNHNLIERRRRYNINYRIKELGTLIPKSNDPDMRWNKGTILKASVEYIKWLQKEQQRARELEHRQKKLEQANRRLLLRIQVFIRM,not soluble
14,MGSDKIHHHHHHMRNMNIEEIRNSFLSGRPAVLIDEERENEADLVFPAEIATPKVVNFMLSAKGLLCLALDMEEGIKRGFFKLPNNGGETNFLIPVDYKDVFTGITAEERALTARKVAEGLGIENFRYPGHLPLLGGLGLNKRKGHTEASLELVEMAGFKRYALIIEILDDKGYSHNLDYAFHFAKEHDLPLIRIREIWKEFVRRKQLIHVYSKAKLPTKYGDFEIYSFKNDLDFKDHVALVKKPFKGTPLVRVHSKCLTGDTLGSLKCDCGSQLENALRTISQEGGVLIYLDQEGRGIGLREKIRAYEFQDRGLDTVEANKALGFAPDERTYEVAFQILRALGIEKIKLLTNNPSKVKALRELGIEIEDVIPLPGEINRYNFFYLKTKVEKLGHKIPGVEV,not soluble
15,MAHHHHHHMRAAPTRLAPSTVASLGRSHCGSQAYHLDAAGAAGWRRRRRLTGVSMTTTHTVAPAVSALPFSLSTARRTYYWPYPENLVPEGATTSPFQSSPVPSVRERIIREYALGPLFGSRTPCCVLGFAGTARDVAACKRDVRRWVARALGKSEADVELGALVQAKEMLLHRSGTDESPRLGDGPGSRPDAEQRRVTRYARLPVQARTLLEVYLPGEEHGEVDAAADADATILAHGYFLQEQLHRHMTTTASSGSDPTGRRDSEDCQPEEPARKMQSHCQGCSEPNDEADVKSSVAALHDVCGVIYCEVPVLDESDFAFDQLCGKEVDDETTERVTDRWTRRAMQQQPQL,soluble
16,MSLRILDIREQAIPVSRYDDPAIASGGLTTSIVAIVTDVVRDGRPVTGYGYASAGRFAQGGLIRERFAPRLLAAAEALADDAGTNLDPLRAWRAMMAGEKPGGHGERCVAVGTLDMAIWDAAAKIARVPLHCLIADRLGRAAPARTARVRVYAGGGYRYPRDDLARLSDEMRRIVDLGYTHAKIKIGATDLDVDRRRIEAAAARLADSAHLAVDAMNAYDATNAGDAAAMLAPFGLWWFEDVCDPLDLPLHAQLAAQYAPPIAAGEALFSLAEAKLLDRYGGLRSDRDVLVFDPVHCYGLSGYLQIVDHFVSRGWRRDAFWPHGGHLFSLHVVAALGLGGAEVNPFAFHPFSGLADGERVDAGYAALPSAPGIGFECHARVHAAFRALSVREGHHHHHH,soluble
17,MINKPNQFLNHLDGLKQHFSDYDSLQKSFKKYLSENQTELNNFFFNQFEKIIVLVKKKEFKTAQERCEEELATPYFSKPLVGFFQSLLQLINHDLIEQKNQQLANMSCEKIVEMVLSDYPNKLNLIHYLLAKEASFVNPNLLQRMTFVLTDLELLELKRFSFFKALNQIPAFKNHKVTYFNSKLKQKFVITLGEFAFPQTDKTKQFFQQLIKKVSQLFLKEPVSCEFAYEIIDALLVSFFPLHPNLEVNHLAKKIHQYVSKIVINEVVDLKDPTTKLIVDTLYEQLDRAIGEEN,soluble
18,MSLATIDSMNKDTTRLSDGPDWTFDLLDVYLAEIDRVAKLYRLDTYPHQIEVITSEQMMDAYSSVGMPINYPHWSFGKKFIETERLYKHGQQGLAYEIVINSNPCIAYLMEENTITMQALVMAHACYGHNSFFKNNYLFRSWTDASSIVDYLIFARKYITECEERYGVDEVERLLDSCHALMNYGVDRYKRPQKISLQEEKARQKSREEYLQSQVNMLWRTLPKREEEKTVAEARRYPSEPQENLLYFMEKNAPLLESWQREILRIVRKVSQYFYPQKQTQVMNEGWATFWHYTILNHLYDEGKVTERFMLEFLHSHTNVVFQPPYNSPWYSGINPYALGFAMFQDIKRICQSPTEEDKYWFPDIAGSDWLETLHFAMRDFKDESFISQFLSPKVMRDFRFFTVLDDDRHNYLEISAIHNEEGYREIRNRLSSQYNLSNLEPNIQIWNVDLRGDRSLTLRYIPHNRAPLDRGRKEVLKHVHRLWGFDVMLEQQNEDGSVELLERCPPRMGNLEGHHHHHH,soluble
